These are literature values, as cited in publication PMC7308888, “Development of a cell-free split-luciferase biochemical assay as a tool for screening for inhibitors of challenging protein-protein interaction targets” (Wellcome Open Research, 2020).

The data set addresses RAF (Homo sapiens) (UniProt P04049).

pKd: −log10 of the molar value.

Usually pKd stands for the negative decadic logarithm of the Kd, by convention in mol/L. Turning to RAS (from UniProt P01116), the negative-log Kd (pKd) is 7.70.
